Measured values as given in US20250302974A1, “LECTIN-DRUG CONJUGATES” (UNICHEM LABORATORIES LIMITED, priority 2021, published 2025).

Experiments:
Experiment in all cases: Cytotoxic effect by MTT assay, 48 h
Settings in all cases: for Percent cytotoxicity wrt control: 48 h
PANC-1 Pancreatic = system: PANC-1 Pancreatic
Description: (§1) Cells were treated with Test Items at various concentrations (0.0001 μM-10 μM) for 48 h. The cells corresponding to Positive Control group were treated with Doxorubicin at a concentration ranging from 0.1 μM-100 μM. The Untreated cells were used as Control. After 48 h of incubation, the effect of Test Items on cytotoxicity of cells was determined by MTT assay, the plates were taken out and 20 μl of 5 mg/m1 of MTT 3-(4,5-dimethythiazol-2-yl)-2,5-diphenyl tetrazolium bromide solution was added to all the wells. Cells were incubated for 3 h at 37° C. The supernatant was aspirated. 150 μl of DMSO was added to each well to dissolve formazan crystals. The absorbance of each well was then read at 540 nm using Synergy HT micro plate reader.
(§2) The % Cytotoxicity was calculated using the formula:
(§3) Where, X=Absorbance of cells treated with Test Item; R=Absorbance of Control cells (Untreated cells maintained in growth medium only).
(§4) Selectivity Index was calculated using the formula:
(§5) SI=IC50 in Normal cell/IC50 in cancer cell.
(§6) Activity scores of the Selective Index values were categorized as: • Not selective (SI value ≤1) • Moderately selective (1<SI value <5) • Selective (SI value ≥5)

PA-1 Ovary = system: PA-1 Ovary
Description: as §1, §2, §3, §4, §5, §6

MDA-MB-231 Breast = system: MDA-MB-231 Breast
Description: as §1, §2, §3, §4, §5, §6

HT29 Colon = system: HT29 Colon
Description: as §1, §2, §3, §4, §5, §6

T24 Bladder = system: T24 Bladder
Description: as §1, §2, §3, §4, §5, §6

A549 Lungs = system: A549 Lungs
Description: as §1, §2, §3, §4, §5, §6

B1: SEQ ID NO: 2: recombinant variant of the S. rolfsii lectin amino acid sequence (reported as Rec-2 in WO2010/095143) (protein)
chain: TYKITVRVYQTNPDAFFHPVEKTVWKYANGGTWTITDDQHVLTMGGSGTSGTLRFHADNGESFTATFGVHNYKRWCDIVTNLAADETGMVINQQYYSQKNREEARERQLSNYQVKNAKGRNFQIVYTEAEGNDLHANLIIG
PANC-1 Pancreatic; PANC-1, 0.0001 μM
  Percent cytotoxicity wrt control: 9.5%
PANC-1 Pancreatic; PANC-1, 0.001 μM
  Percent cytotoxicity wrt control: 17%
PANC-1 Pancreatic; PANC-1, 0.01 μM
  Percent cytotoxicity wrt control: 20.5%
PANC-1 Pancreatic; PANC-1, 0.1 μM
  Percent cytotoxicity wrt control: 22.5%
PANC-1 Pancreatic; PANC-1, 1 μM
  Percent cytotoxicity wrt control: 34.4%
PANC-1 Pancreatic; PANC-1, 10 μM
  Percent cytotoxicity wrt control: 36.4%
PANC-1 Pancreatic; read-out: IC50 Values, PANC-1 Pancreatic, after 48 h of treatment
  IC50: > 10000 nM
PA-1 Ovary; PA-1, 0.0001 μM
  Percent cytotoxicity wrt control: 0.9%
PA-1 Ovary; PA-1, 0.001 μM
  Percent cytotoxicity wrt control: −5.6%
PA-1 Ovary; PA-1, 0.01 μM
  Percent cytotoxicity wrt control: 7.4%
PA-1 Ovary; PA-1, 0.1 μM
  Percent cytotoxicity wrt control: 4.5%
PA-1 Ovary; PA-1, 1 μM
  Percent cytotoxicity wrt control: 51%
PA-1 Ovary; PA-1, 10 μM
  Percent cytotoxicity wrt control: 72.2%
PA-1 Ovary; read-out: IC50 Values, PA-1 Ovary, after 48 h of treatment
  IC50: 1540 nM
MDA-MB-231 Breast; MDA-MB-231, 0.0001 μM
  Percent cytotoxicity wrt control: 13.7%
MDA-MB-231 Breast; MDA-MB-231, 0.001 μM
  Percent cytotoxicity wrt control: 15.1%
MDA-MB-231 Breast; MDA-MB-231, 0.01 μM
  Percent cytotoxicity wrt control: 16.2%
MDA-MB-231 Breast; MDA-MB-231, 0.1 μM
  Percent cytotoxicity wrt control: 28.1%
MDA-MB-231 Breast; MDA-MB-231, 1 μM
  Percent cytotoxicity wrt control: 48.5%
MDA-MB-231 Breast; MDA-MB-231, 10 μM
  Percent cytotoxicity wrt control: 66.4%
MDA-MB-231 Breast; read-out: IC50 Values, MDA-MB-231 Breast, after 48 h of treatment
  IC50: 1350 nM
HT29 Colon; HT29, 0.0001 μM
  Percent cytotoxicity wrt control: 14%
HT29 Colon; HT29, 0.001 μM
  Percent cytotoxicity wrt control: 16.6%
HT29 Colon; HT29, 0.01 μM
  Percent cytotoxicity wrt control: 22.5%
HT29 Colon; HT29, 0.1 μM
  Percent cytotoxicity wrt control: 24.7%
HT29 Colon; HT29, 1 μM
  Percent cytotoxicity wrt control: 35.4%
HT29 Colon; HT29, 10 μM
  Percent cytotoxicity wrt control: 54.1%
HT29 Colon; read-out: IC50 Values, HT29 Colon, after 48 h of treatment
  IC50: 9390 nM
T24 Bladder; T24, 0.0001 μM
  Percent cytotoxicity wrt control: 9.7%
T24 Bladder; T24, 0.001 μM
  Percent cytotoxicity wrt control: 11.1%
T24 Bladder; T24, 0.01 μM
  Percent cytotoxicity wrt control: 9.1%
T24 Bladder; T24, 0.1 μM
  Percent cytotoxicity wrt control: 10.5%
T24 Bladder; T24, 1 μM
  Percent cytotoxicity wrt control: 43.1%
T24 Bladder; T24, 10 μM
  Percent cytotoxicity wrt control: 68.7%
T24 Bladder; read-out: IC50 Values, T24 Bladder, after 48 h of treatment
  IC50: 2130 nM
A549 Lungs; A549, 0.0001 μM
  Percent cytotoxicity wrt control: −0.5%
A549 Lungs; A549, 0.001 μM
  Percent cytotoxicity wrt control: −15.5%
A549 Lungs; A549, 0.01 μM
  Percent cytotoxicity wrt control: −1.1%
A549 Lungs; A549, 0.1 μM
  Percent cytotoxicity wrt control: −6.9%
A549 Lungs; A549, 1 μM
  Percent cytotoxicity wrt control: 31.9%
A549 Lungs; A549, 10 μM
  Percent cytotoxicity wrt control: 48.2%
A549 Lungs; read-out: IC50 Values, A549 Lungs, after 48 h of treatment
  IC50: ≥ 10000 nM
